Reference: paper PMC3766450 (Nature structural & molecular biology, 2013)

Biological target: vertebrate calmodulin (CaM) (UniProt P0DP23)
Experiment: ITC

Binder	stoichiometry N
LFPRAKSVSERLSILKGSRP [AQP0^CBD peptide L227A]	1 peptide per CaM
LFPRLKSASERLSILKGSRP [AQP0^CBD peptide V230A]	1 peptide per CaM
LFPRLKSVSERASILKGSRP [AQP0^CBD peptide L234A]	2 peptides per CaM
LFPRLKSVSERLSIAKGSRP [AQP0^CBD peptide L237A]	2 peptides per CaM
